What is called Kd is the free concentration of one partner at which half of the binding sites on the other are occupied at equilibrium, for simple one-to-one binding. Read a high Kd as a looser complex.

Residue numbers refer to the chain shown, from its start.

Five molecules from patent publication US20190094207A1 (JAPANESE FOUNDATION FOR CANCER RESEARCH, published 2019) can be followed below.

In test [1] the target is INCENP (Inner Centromere Protein), endogenous, as part of the chromosomal passenger complex (CPC) (human, UniProt Q9NQS7 1-918). Nature of the test: INCENP immunoprecipitated from mitotic HeLa cell extract; amount of coprecipitated protein (INCENP in the same precipitate: 1280 pmol). The procedure: The cells in the mitotic phase were incubated in a solution, which was prepared by adding 1 U/μl OmniCleave Endonuclease (manufactured by Epicentre) in the above immunoprecipitation buffer, at 4° C. for 30 minutes. The solution was centrifuged at 4° C. and 15,000 rpm for 10 minutes and the supernatant was further centrifuged. The resultant supernatant was used for immunoprecipitation. Protein A-Sepharose (manufactured by Bio-Rad) having an antibody bound thereto, was allowed to react with cell extracts and subjected to immunoprecipitation. […]
Next, whether or not binding to INCENP differs among the subtypes of HP1 was analyzed (FIG. 1B). […] Mitotic HeLa cell extracts were subjected to immunoprecipitation with an INCENP antibody or control IgG and then analyzed by immunoblotting using antibodies against INCENP, Aurora B (clone 6, manufactured by BD Bioscience) and Survivin (71G4B7E, manufactured by Cell Signaling Technology) constituting CPC; an HP1α antibody (clone 15.19s2, manufactured by Millipore), an HP1β antibody (clone 1MOD-1A9, manufactured by Millipore) and an HP1 γ antibody (clone 2MOD-1G6, manufactured by Millipore).
Quantitative analysis was carried out using purified recombinant HP1-subtype proteins.

Test [2] addresses T1, Wild type HP1α (His tag or GST tag attached) (UniProt P45973 1-191).
T1 construct: also called heterochromatin protein 1; not shown: His tag or GST tag
Nature of the test: isothermal titration calorimetry, average of 5 experiments. How it is done:
(§1) Wild type HP1α and a region at positions 121 to 270 in INCENP (SEQ ID NO: 8, INCENP WT) were used in the binding assay. The region at positions 121 to 270 in INCENP contains an important motif […], required for binding to HP1. A mutant (SEQ ID NO: 9, INCENP 3A) was obtained by substituting three amino acids in this region with alanine residues and used as a control. A dissociation constant thereof was determined by isothermal titration calorimetry. As an isothermal titration calorimetry apparatus, any device may be used. For example, using MicroCal iTC2000 system (manufactured by GE healthcare biosciences), measurement may be carried out, in accordance with a conventional method.
(§2) The above peptides, to which His tag or GST tag was attached, were subjected to isothermal titration calorimetry to determine a dissociation constant. Note that, the dissociation constant was computationally obtained based on average values of 5 experiments.
On the technique in general: Isothermal titration calorimetry measures the heat released or taken up as one component is titrated into another.

In test [3] the target is T1, Wild type HP1α (His tag or GST tag …). Description: isothermal titration calorimetry. The procedure: as §1, §2
Test [4] shares this target. Description: alpha assay with acceptor and donor beads capturing His tag or GST tag. How it is done: If a candidate compound is added in the binding assay system, a compound influencing the binding of INCENP and HP1 can be screened. Further, a system for analyzing the binding of HP1 and INCENP based on an alpha assay, which is more sensitive and easier in operation, was constructed. The interaction between HP1α and INCENP was determined by using acceptor beads or donor beads that can capture His tag or GST tag and detecting fluorescent signal in accordance with a conventional method. As a result of that His tag or GST tag was attached to HP1α and a region at positions 160 to 210 in INCENP (SEQ ID NO: 10) and the aforementioned alpha assay using acceptor beads and donor beads was carried out, a binding can be sensitively detected. Accordingly, owing to HTS using the binding assay or alpha assay, compounds influencing the binding of HP1 and INCENP can be screened.

In test [5] the target is T2, GST-Aurora B (UniProt Q96GD4 1-344, limits assumed).
T2 construct: not shown: GST
Nature of the test: GST pull down with recombinant full-length INCENP + GST-Aurora B, without HP1α, with HP1α WT or with I165E; immunoblot and bar chart of Hec1 binding. How it is done: Then, enzyme kinetics analysis of Aurora B was carried out. […] Further, analysis of proteins binding to GST-Aurora B was carried out by the GST pull down assay. As a result, the amount of Hec1 binding to GST-Aurora B increased in the conditions where HP1 can bind to INCENP. […] Accordingly, binding of HP1α to INCENP is required for activating Aurora B.
Background: A western blot detects proteins with antibodies after separation by electrophoresis.

T1 sequence (P45973 whole entry): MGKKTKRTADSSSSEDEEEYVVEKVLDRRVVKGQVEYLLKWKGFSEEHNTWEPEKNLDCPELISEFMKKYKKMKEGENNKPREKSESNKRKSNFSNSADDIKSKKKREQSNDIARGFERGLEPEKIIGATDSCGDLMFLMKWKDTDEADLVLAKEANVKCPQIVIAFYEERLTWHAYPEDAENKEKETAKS
INCENP (Inner Centromere Protein), endogenous, as part of the chromosomal passenger complex (CPC), sequence (Q9NQS7 whole entry, one chain of several): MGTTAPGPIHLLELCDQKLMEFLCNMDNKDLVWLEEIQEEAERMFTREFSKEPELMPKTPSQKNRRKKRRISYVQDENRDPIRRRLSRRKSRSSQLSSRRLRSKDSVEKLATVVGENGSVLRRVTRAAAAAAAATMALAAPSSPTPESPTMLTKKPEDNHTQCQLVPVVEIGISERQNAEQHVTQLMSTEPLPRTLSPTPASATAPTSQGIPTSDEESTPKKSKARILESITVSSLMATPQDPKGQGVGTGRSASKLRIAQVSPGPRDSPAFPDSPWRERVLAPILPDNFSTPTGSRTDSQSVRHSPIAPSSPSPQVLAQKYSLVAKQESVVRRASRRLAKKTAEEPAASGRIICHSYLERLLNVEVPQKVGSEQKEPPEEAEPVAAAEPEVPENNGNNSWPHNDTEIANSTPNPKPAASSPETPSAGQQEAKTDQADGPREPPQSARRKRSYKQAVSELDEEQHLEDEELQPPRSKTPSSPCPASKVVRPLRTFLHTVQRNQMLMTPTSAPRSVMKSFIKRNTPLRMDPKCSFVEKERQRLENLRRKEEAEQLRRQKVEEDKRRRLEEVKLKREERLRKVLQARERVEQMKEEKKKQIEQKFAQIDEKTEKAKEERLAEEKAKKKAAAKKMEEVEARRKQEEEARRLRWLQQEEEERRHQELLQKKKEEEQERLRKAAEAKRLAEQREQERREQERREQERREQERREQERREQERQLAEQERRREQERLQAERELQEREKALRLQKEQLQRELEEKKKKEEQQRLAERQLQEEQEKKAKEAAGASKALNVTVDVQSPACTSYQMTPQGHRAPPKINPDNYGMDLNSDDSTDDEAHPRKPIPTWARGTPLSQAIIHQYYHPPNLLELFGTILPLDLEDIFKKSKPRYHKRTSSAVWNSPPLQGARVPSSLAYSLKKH

B1: Aurora B (endogenous) (enzyme, human, UniProt Q96GD4 1-344, looked up)
chain: MAQKENSYPWPYGRQTAPSGLSTLPQRVLRKEPVTPSALVLMSRSNVQPTAAPGQKVMENSSGTPDILTRHFTIDDFEIGRPLGKGKFGNVYLAREKKSHFIVALKVLFKSQIEKEGVEHQLRREIEIQAHLHHPNILRLYNYFYDRRRIYLILEYAPRGELYKELQKSCTFDEQRTATIMEELADALMYCHGKKVIHRDIKPENLLLGLKGELKIADFGWSVHAPSLRRKTMCGTLDYLPPEMIEGRMHNEKVDLWCIGVLCYELLVGNPPFESASHNETYRRIVKVDLKFPASVPMGAQDLISKLLRHNPSERLPLAQVSAHPWVRANSRRVLPPSALQSVA
Turning to B1, the “Amount” value in test [1] is 1110 pmol.

B2: INCENP WT (region at positions 121 to 270 in INCENP) (peptide)
chain: LRRVTRAAAAAAAATMALAAPSSPTPESPTMLTKKPEDNHTQCQLVPVVEIGISERQNAEQHVTQLMSTEPLPRTLSPTPASATAPTSQGIPTSDEESTPKKSKARILESITVSSLMATPQDPKGQGVGTGRSASKLRIAQVSPGPRDSP
notes: also called INCENP 121-270; not shown: His tag or GST tag
B2 came in with a Kd in test [2] of 102 nM.

B3: INCENP 3A (region 121 to 270 of INCENP with three amino acids substituted with alanine) (peptide)
chain: B2 chain with P47A, V49A, I51A
notes: also called INCENP 3A mutant; not shown: His tag or GST tag
B3: the binding result in test [3] is on record as “no binding”.

B4: Region at positions 160 to 210 in INCENP (peptide)
chain: TQCQLVPVVEIGISERQNAEQHVTQLMSTEPLPRTLSPTPASATAPTSQG
notes: Used in the alpha assay with HP1α; also called INCENP 160-210; not shown: His tag or GST tag
B4: the binding result in test [4] is reported as “binds”.

B5: Hec1 (other, UniProt O14777 1-80, looked up)
chain: MKRSSVSSGGAGRLSMQELRSQDVNKQGLYTPQTKEKPTFGKLSINKPTSERKVSLFGKRTSGHGSRNSQLGIFSSSEKI
notes: also called Aurora B substrate
As for B5, in test [5], the binding result is “binds”.
